This passage reports % conjugation results from article PMC6158681.

The target in the assay is SpyCatcher-mi3 (Streptococcus pyogenes | Thermotoga maritima).

As for SpyTag-MBP, the % conjugation came to 91%.
